In PMC10101081, “EBR-5, a Novel Variant of Metallo-β-Lactamase EBR from Multidrug-Resistant Empedobacter stercoris” (Microbiology Spectrum, 2023):

Columns and labels:
EBR-5 = target: T1, EBR-5 (Empedobacter stercoris, UniProt A0ABX1WID8); test: beta-lactamase inhibition assay; type: biochemical
T1 construct: gene bla; 234-residue precursor; N-terminal signal peptide removed (predicted cleavage between 17 and 18, AFG-QI)

[1] = tested on: CO/N=C(\C(=O)N[C@@H]1C(=O)N2C(C(=O)[O-])=C(C[N+]3(C)CCCC3)CS[C@H]12)c1csc(N)n1; test: steady-state hydrolysis kinetics, Michaelis-Menten fit; type: biochemical, Empedobacter stercoris
Excerpt: (§1) steady-state hydrolysis kinetics, Michaelis-Menten fit on EBR-5

[2] = tested on: CO/N=C(\C(=O)N[C@@H]1C(=O)N2C(C(=O)O)=C(COC(C)=O)CS[C@H]12)c1csc(N)n1; test: as above; type: biochemical, Empedobacter stercoris
Excerpt: as §1

[3] = tested on: CC(=O)OCC1=C(C(=O)O)N2C(=O)[C@@H](NC(=O)Cc3cccs3)[C@H]2SC1; test: as above; type: biochemical, Empedobacter stercoris
Excerpt: as §1

[4] = tested on: CC(C)(O/N=C(\C(=O)N[C@@H]1C(=O)N2C(C(=O)[O-])=C(C[n+]3ccccc3)CS[C@H]12)c1csc(N)n1)C(=O)O; test: as above; type: biochemical, Empedobacter stercoris
Excerpt: as §1

[5] = tested on: C[C@@H](O)[C@H]1C(=O)N2C(C(=O)O)=C(S[C@@H]3CN[C@H](C(=O)N(C)C)C3)[C@H](C)[C@H]12; test: as above; type: biochemical, Empedobacter stercoris
Excerpt: as §1

[6] = tested on: CO[C@@]1(NC(=O)Cc2cccs2)C(=O)N2C(C(=O)O)=C(COC(N)=O)CS[C@@H]21; test: as above; type: biochemical, Empedobacter stercoris
Excerpt: as §1

[7] = tested on: O=C(Cc1cccs1)N[C@@H]1C(=O)N2C(C(=O)O)=C(/C=C/c3ccc([N+](=O)[O-])cc3[N+](=O)[O-])CS[C@H]12; test: as above; type: biochemical, Empedobacter stercoris
Excerpt: as §1

[8] = tested on: C[C@@H](O)[C@H]1C(=O)N2C(C(=O)O)=C(SCCN=CN)C[C@H]12; test: as above; type: biochemical, Empedobacter stercoris
Excerpt: as §1

[9] = tested on: C[C@@H](O)[C@H]1C(=O)N2C(C(=O)O)=C(S[C@@H]3CN[C@H](CNS(N)(=O)=O)C3)[C@H](C)[C@H]12; test: as above; type: biochemical, Empedobacter stercoris
Excerpt: as §1

[10] = tested on: CC1(C)S[C@@H]2[C@H](NC(=O)Cc3ccccc3)C(=O)N2[C@H]1C(=O)O; test: as above; type: biochemical, Empedobacter stercoris
Excerpt: as §1

[11] = tested on: C[C@@H](O)[C@H]1C(=O)N2C(C(=O)O)=C(S[C@@H]3CN[C@H](C(=O)Nc4cccc(C(=O)O)c4)C3)[C@H](C)[C@H]12; test: as above; type: biochemical, Empedobacter stercoris
Excerpt: as §1

[12] = tested on: CC1(C)S[C@@H]2[C@H](NC(=O)[C@H](N)c3ccccc3)C(=O)N2[C@H]1C(=O)O; test: as above; type: biochemical, Empedobacter stercoris
Excerpt: as §1

[13] = tested on: CO/N=C(\C(=O)N[C@@H]1C(=O)N2C(C(=O)O)=C(COC(N)=O)CS[C@H]12)c1ccco1; test: as above; type: biochemical, Empedobacter stercoris
Excerpt: as §1

O=C(O)CN(CCN(CC(=O)O)CC(=O)O)CC(=O)O [EDTA]
IC50 (EBR-5): 130 µM

EBR-5 (Empedobacter stercoris)
Km [1]: 1,058 ± 58 μM | kcat [1]: 0.1 ± 0.01 s⁻¹ | kcat/Km [1]: 100 M⁻¹ s⁻¹ | Km [2]: 29 ± 3.9 µM | kcat [2]: 2.8 ± 0.1 s⁻¹ | kcat/Km [2]: 94000 M⁻¹ s⁻¹ | Km [3]: 64 ± 6.4 µM | kcat [3]: 27 ± 0.8 s⁻¹ | kcat/Km [3]: 419000 M⁻¹ s⁻¹ | Km [4]: 567 ± 76 µM | kcat [4]: 0.9 ± 0.09 s⁻¹ | kcat/Km [4]: 1600 M⁻¹ s⁻¹ | Km [5]: 626 ± 61 µM | kcat [5]: 147 ± 8.3 s⁻¹ | kcat/Km [5]: 236000 M⁻¹ s⁻¹ | Km [6]: 182 ± 12 µM | kcat [6]: 1.5 ± 0.04 s⁻¹ | kcat/Km [6]: 8500 M⁻¹ s⁻¹ | Km [7]: 15 ± 1.7 µM | kcat [7]: 18 ± 0.5 s⁻¹ | kcat/Km [7]: 1.17e+06 M⁻¹ s⁻¹ | Km [8]: 1,218 ± 147 μM | kcat [8]: 124 ± 10 s⁻¹ | kcat/Km [8]: 102000 M⁻¹ s⁻¹ | Km [9]: 1,283 ± 161 μM | kcat [9]: 145 ± 14 s⁻¹ | kcat/Km [9]: 113000 M⁻¹ s⁻¹ | Km [10]: 116 ± 16 µM | kcat [10]: 86 ± 2.8 s⁻¹ | kcat/Km [10]: 745000 M⁻¹ s⁻¹ | Km [11]: 1,507 ± 175 μM | kcat [11]: 151 ± 13 s⁻¹ | kcat/Km [11]: 100000 M⁻¹ s⁻¹ | Km [12]: 207 ± 21 µM | kcat [12]: 118 ± 3.3 s⁻¹ | kcat/Km [12]: 572000 M⁻¹ s⁻¹ | Km [13]: 19 ± 2.3 µM | kcat [13]: 2.1 ± 0.07 s⁻¹ | kcat/Km [13]: 111000 M⁻¹ s⁻¹

O=C(O)[C@H]1/C(=C/CO)O[C@@H]2CC(=O)N21 [clavulanic acid]
IC50 (EBR-5): > 2000 µM
